For assay [1], the target named is soluble human C3b (human) (UniProt P01024).
Assay [2] has as its target T1, human C4b (human) (UniProt P0C0L4).
T1 sequence: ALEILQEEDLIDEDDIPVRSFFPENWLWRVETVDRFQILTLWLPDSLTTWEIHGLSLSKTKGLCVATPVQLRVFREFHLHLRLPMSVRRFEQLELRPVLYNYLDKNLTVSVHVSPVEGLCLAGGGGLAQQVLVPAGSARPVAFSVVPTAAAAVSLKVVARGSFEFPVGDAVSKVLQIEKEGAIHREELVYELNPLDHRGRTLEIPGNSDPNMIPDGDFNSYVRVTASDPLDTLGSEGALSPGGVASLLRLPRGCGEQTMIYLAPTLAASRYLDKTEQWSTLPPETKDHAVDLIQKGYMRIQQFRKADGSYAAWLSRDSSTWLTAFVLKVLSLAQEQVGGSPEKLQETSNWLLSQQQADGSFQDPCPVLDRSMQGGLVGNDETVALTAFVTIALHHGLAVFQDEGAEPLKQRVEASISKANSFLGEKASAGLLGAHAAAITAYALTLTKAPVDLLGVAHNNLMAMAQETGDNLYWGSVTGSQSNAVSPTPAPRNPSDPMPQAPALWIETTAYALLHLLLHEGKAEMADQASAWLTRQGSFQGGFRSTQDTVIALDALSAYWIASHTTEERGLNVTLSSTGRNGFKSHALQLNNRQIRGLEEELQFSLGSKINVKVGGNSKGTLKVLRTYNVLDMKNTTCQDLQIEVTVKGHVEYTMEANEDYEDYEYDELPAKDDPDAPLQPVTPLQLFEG

The target in assay [3] is soluble human C3b (human) (UniProt P01024). The source holds these as a separate data set.
The target of assay [4] is T1, human C4b (human). This is another data set of the same source.

On to CFI-HSA variant G406I (enzyme), for which the iC3b Screen Ref Fold (fold of reference) in assay [1] amounted to 0.4. In assay [2], the C4b Screen Ref Fold (fold of reference) stood at 0.97. Further, the iC3b EC50 in assay [3] was 54.4 nM. In addition, the C4c EC50 in assay [4] is more than 1000 nM.
Consider CFI-HSA variant G406L (enzyme), for which the iC3b Screen Ref Fold (fold of reference) in assay [1] came to 0.82. In addition, in assay [2], the C4b Screen Ref Fold (fold of reference) was 0.92. Besides, the iC3b EC50 in assay [3] was found to be 31.9 nM. The C4c EC50 in assay [4] worked out at 386 nM.
In the same order, the values of CFI-HSA variant G406M (enzyme) are 0.6, 1.17, 40.5 nM and more than 1000 nM.
In the same order, the values of CFI-HSA variant G406N (enzyme) are 0.59, 0.94, 35.2 nM and more than 1000 nM.
In the same order, the values of CFI-HSA variant G406P (enzyme) are 0.47, 0.49, 35.9 nM and more than 1000 nM.
CFI-HSA variant G406Q (enzyme): the iC3b Screen Ref Fold (fold of reference) in assay [1] stood at 0.68. For the same substance, the C4b Screen Ref Fold (fold of reference) in assay [2] came out at 0.91. Besides, the iC3b EC50 in assay [3] came to 30.7 nM. Also, in assay [4], the C4c EC50 was more than 1000 nM.
For CFI-HSA variant G406R (enzyme), the iC3b Screen Ref Fold (fold of reference) in assay [1] came to 1.31. Moreover, the C4b Screen Ref Fold (fold of reference) in assay [2] worked out at 1.31. Besides, the iC3b EC50 in assay [3] is 19 nM. The substance further had a C4c EC50 (nM) in assay [4] of 474 nM.
As for CFI-HSA variant G406S (enzyme), the iC3b Screen Ref Fold (fold of reference) in assay [1] stood at 0.4. In addition, the C4b Screen Ref Fold (fold of reference) in assay [2] stood at 1.83. Further, in assay [3], the iC3b EC50 turned out to be 32.6 nM. Besides, the C4c EC50 in assay [4] came to 315 nM.
In the same order, the values of CFI-HSA variant G406T (enzyme) are 0.52, 1.09, 52.4 nM and more than 1000 nM.
In the same order, the values of CFI-HSA variant G406V (enzyme) are 0.44, 1.09, 43.1 nM and more than 1000 nM.
For the substance CFI-HSA variant G406W (enzyme), the iC3b Screen Ref Fold (fold of reference) in assay [1] came to 0.38. For the same substance, the C4b Screen Ref Fold (fold of reference) in assay [2] is 1.57. The substance further gave an iC3b EC50 in assay [3] of 65.5 nM. The C4c EC50 in assay [4] is more than 1000 nM.
In the same order, the values of CFI-HSA variant G406Y (enzyme) are 0.39, 0.43, 14.9 nM and more than 1000 nM.
In the same order, the values of CFI-HSA variant K418G; D425G (enzyme) are 0.19, 0.84, 28.5 nM and 865 nM.
CFI-HSA variant K504F (enzyme): the iC3b Screen Ref Fold (fold of reference) in assay [1] came out at 0.13. Also, the C4b Screen Ref Fold (fold of reference) in assay [2] was determined as 0.29. Further, the iC3b EC50 in assay [3] worked out at 77.5 nM. This substance showed a C4c EC50 (nM) in assay [4] of more than 1000 nM.
In the same order, the values of CFI-HSA variant K504I (enzyme) are 0.1, 0.05, 176 nM and more than 1000 nM.
With CFI-HSA variant K504M (enzyme), in assay [1], the iC3b Screen Ref Fold (fold of reference) amounted to 0.52. In addition, the C4b Screen Ref Fold (fold of reference) in assay [2] came out at 0.14. Further, the iC3b EC50 in assay [3] was 43.8 nM. The same substance gave a C4c EC50 (nM) in assay [4] of more than 1000 nM.
CFI-HSA variant K504N (enzyme): the iC3b Screen Ref Fold (fold of reference) in assay [1] is 0.18. Also, the C4b Screen Ref Fold (fold of reference) in assay [2] was 0.57. In addition, the iC3b EC50 in assay [3] is 76.8 nM. In assay [4], this substance gave a C4c EC50 (nM) of more than 1000 nM.
For the substance “CFI-HSA variant K504R; D425R; E457G; E461Q; N531G (enzyme)”, in assay [1], the iC3b Screen Ref Fold (fold of CFI-HSA wild type) was 1.59. The C4b Screen Ref Fold (fold of CFI-HSA wild type) in assay [2] was 4.19. The same substance returned an iC3b EC50 in assay [3] of 4.2 nM. In assay [4], this substance yielded a C4c EC50 (nM) of 8.4 nM.
In the same order, the values of “CFI-HSA variant K504R; E457G; E461Q; N531G (enzyme)” are 2.98, 4.18, 3 nM and 8.2 nM.
In the same order, the values of “CFI-HSA variant K504R; E530F; D425K; P558G (enzyme)” are 3.07, 0.08, 5.2 nM and more than 1000 nM.
Take “CFI-HSA variant K504R; E530F; D425K; P558S (enzyme)”: the iC3b Screen Ref Fold (fold of CFI-HSA wild type) in assay [1] was determined as 2.91. Besides, the C4b Screen Ref Fold (fold of CFI-HSA wild type) in assay [2] amounted to 0.05. This substance registered an iC3b EC50 in assay [3] of 5.7 nM. Further, in assay [4], the C4c EC50 (nM) is more than 1000 nM.
In the same order, the values of “CFI-HSA variant K504R; E530F; D425K; P558S; E457G; E461Q; N531G (enzyme)” are 1.98, 3.92, 2.4 nM and 6.9 nM.
In the same order, the values of “CFI-HSA variant K504R; E530F; D425R; P558G (enzyme)” are 2.97, 0.02, 6.2 nM and more than 1000 nM.
In the same order, the values of “CFI-HSA variant K504R; E530F; D425R; P558S (enzyme)” are 3, 0.09, 5.2 nM and more than 1000 nM.
In the case of “CFI-HSA variant K504R; E530F; E457G; E461Q; N531G (enzyme)”, the iC3b Screen Ref Fold (fold of CFI-HSA wild type) in assay [1] turned out to be 1.8. Besides, the C4b Screen Ref Fold (fold of CFI-HSA wild type) in assay [2] was found to be 3.91. For the same substance, the iC3b EC50 in assay [3] was found to be 4.6 nM. In assay [4], this substance yielded a C4c EC50 (nM) of 16.2 nM.
In the same order, the values of “CFI-HSA variant K504R; P558S; E457G; E461Q; N531G (enzyme)” are 2.12, 4.03, 5.5 nM and 9 nM.
With CFI-HSA variant K504S (enzyme), the iC3b Screen Ref Fold (fold of reference) in assay [1] was determined as 0.25. Besides, in assay [2], the C4b Screen Ref Fold (fold of reference) stood at 0.45. The substance also came in with an iC3b EC50 in assay [3] of 43.7 nM. The substance further came in with a C4c EC50 (nM) in assay [4] of more than 1000 nM.
In the same order, the values of CFI-HSA variant K504T (enzyme) are 0.73, 0.1, 43.5 nM and more than 1000 nM.
In the same order, the values of CFI-HSA variant K504V (enzyme) are 0.21, 0.07, 104 nM and more than 1000 nM.
In the same order, the values of CFI-HSA variant K504W (enzyme) are 0.12, 0.27, 48.7 nM and more than 1000 nM.
Consider CFI-HSA variant K504Y (enzyme), for which the iC3b Screen Ref Fold (fold of reference) in assay [1] was 0.18. Also, the C4b Screen Ref Fold (fold of reference) in assay [2] amounted to 2.86. This substance also showed an iC3b EC50 in assay [3] of 51.6 nM. For the same substance, the C4c EC50 (nM) in assay [4] stood at 196 nM.
For the substance CFI-HSA variant N422G (enzyme), in assay [1], the iC3b Screen Ref Fold (fold of CFI-HSA wild type) is 1.34. The C4b Screen Ref Fold (fold of CFI-HSA wild type) in assay [2] came out at 0.88. This substance yielded an iC3b EC50 in assay [3] of 25.5 nM. For the same substance, the C4c EC50 (nM) in assay [4] was found to be 238 nM.
In the same order, the values of “CFI-HSA variant N422K; E457G; E461Q; Q467K; N531G (enzyme)” are 2.84, 3.85, 2.5 nM and 5 nM.
In the same order, the values of CFI-HSA variant N460G (enzyme) are 1.61, 1.69, 17.5 nM and 156 nM.
Take CFI-HSA variant N531K (enzyme): the iC3b Screen Ref Fold (fold of reference) in assay [1] was -0.01. In assay [2], the C4b Screen Ref Fold (fold of reference) is 3.03. Moreover, in assay [3], the iC3b EC50 stood at 13 nM. This substance displayed a C4c EC50 (nM) in assay [4] of 223 nM.
In the same order, the values of CFI-HSA variant N531L (enzyme) are 1.04, 3.47, 17.6 nM and 219 nM.
In the same order, the values of CFI-HSA variant N531M (enzyme) are 0, 2.48, 21.2 nM and 99.8 nM.

The record behind these values is patent US20230038638A1, “COMPLEMENT FACTOR I-RELATED COMPOSITIONS AND METHODS” (published 2023).
